The record followed here is US20220411498A1 (JACOBIO PHARMACEUTICALS, published 2022).

Where a chain is given by its changes, count along the chain named.

First the molecules themselves.
T1: cyno CD39 on the cell surface (293T/17-cyno CD39 cells) (cyno, UniProt P49961 7-510 (human entry))
T1 chain: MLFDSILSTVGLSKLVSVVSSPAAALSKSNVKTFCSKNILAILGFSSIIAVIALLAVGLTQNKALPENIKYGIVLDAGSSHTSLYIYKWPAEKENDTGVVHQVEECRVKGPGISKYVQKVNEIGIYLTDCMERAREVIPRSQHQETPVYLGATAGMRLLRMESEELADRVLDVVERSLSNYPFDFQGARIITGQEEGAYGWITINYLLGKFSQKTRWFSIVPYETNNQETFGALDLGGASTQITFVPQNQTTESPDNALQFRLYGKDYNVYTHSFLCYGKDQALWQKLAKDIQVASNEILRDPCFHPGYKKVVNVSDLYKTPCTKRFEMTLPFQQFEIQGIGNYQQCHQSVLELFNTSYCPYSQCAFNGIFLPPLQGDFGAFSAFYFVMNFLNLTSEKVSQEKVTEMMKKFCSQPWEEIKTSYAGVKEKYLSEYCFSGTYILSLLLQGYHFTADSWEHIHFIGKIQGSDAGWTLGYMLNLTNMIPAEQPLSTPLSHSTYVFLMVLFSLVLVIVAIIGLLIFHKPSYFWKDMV

T2: huCD39 on the cell surface (293T/17-huCD39 cells) (human, UniProt P49961 1-510)
T2 sequence (looked up): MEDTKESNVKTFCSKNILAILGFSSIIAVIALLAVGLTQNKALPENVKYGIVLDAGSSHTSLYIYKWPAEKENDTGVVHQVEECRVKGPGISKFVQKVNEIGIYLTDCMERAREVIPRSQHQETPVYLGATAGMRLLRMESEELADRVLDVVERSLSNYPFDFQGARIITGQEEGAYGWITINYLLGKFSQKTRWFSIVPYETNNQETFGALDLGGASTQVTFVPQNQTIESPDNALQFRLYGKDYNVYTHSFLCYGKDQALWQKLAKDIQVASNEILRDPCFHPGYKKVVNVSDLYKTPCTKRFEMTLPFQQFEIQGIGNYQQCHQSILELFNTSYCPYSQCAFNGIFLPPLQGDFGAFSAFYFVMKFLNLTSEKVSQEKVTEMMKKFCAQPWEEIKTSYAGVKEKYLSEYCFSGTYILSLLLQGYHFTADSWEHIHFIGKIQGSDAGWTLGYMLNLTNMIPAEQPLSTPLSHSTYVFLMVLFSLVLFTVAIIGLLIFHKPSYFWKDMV

T3: huCD39 recombinant protein (human, UniProt P49961 38-478)
T3 construct: the entry is the extracellular domain and ends in a histidine tag; also called soluble huCD39 protein; human CD39 extracellular domain recombinant protein
T3 sequence: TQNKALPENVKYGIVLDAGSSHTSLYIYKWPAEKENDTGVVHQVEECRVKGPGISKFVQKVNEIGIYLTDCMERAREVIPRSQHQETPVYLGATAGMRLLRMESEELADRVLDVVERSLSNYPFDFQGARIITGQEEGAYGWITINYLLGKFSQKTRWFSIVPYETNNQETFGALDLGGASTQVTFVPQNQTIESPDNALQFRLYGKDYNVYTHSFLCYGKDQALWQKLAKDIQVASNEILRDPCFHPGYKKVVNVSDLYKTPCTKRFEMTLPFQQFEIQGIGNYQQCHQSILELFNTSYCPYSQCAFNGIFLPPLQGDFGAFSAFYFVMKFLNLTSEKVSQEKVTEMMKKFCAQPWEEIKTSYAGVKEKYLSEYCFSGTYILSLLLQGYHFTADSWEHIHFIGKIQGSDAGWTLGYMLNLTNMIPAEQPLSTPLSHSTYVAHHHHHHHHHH

B1: 216 hIgG2 (antibody, V domains shown)
VH: EVQLVESGGGLVKPGGSLKLPCAASGFTFSDYGMHWVRQAPEKGLEWVAYISSGSSIIYYADTVKGRFTISRDNAKNTLFLQMTSLRSEDTAMYYCARDLYYDHVLDYWGQGTTLTVAS
VL: DIQMTQSPSSLSASLGERVSLTCRASQEISGYLIWLQQKPDGTIKRLIYAASTLDSGVPKRFSGNRSGSDYSLTISSLESEDFADYYCLQYASYPRTFGGGTKLEIKR
notes: Chimeric antibody: mouse Fv fused to the human IgG2 constant region; also called chimeric antibody 216
B2: 201 hIgG2 (antibody, V domains shown)
VH: B1 VH with P21S, I58M, T84A, A118S
VL: B1 VL with S30R, D41G, N65S, A92T
notes: Chimeric antibody: mouse Fv fused to the human IgG2 constant region, expressed in 293F cells; also called chimeric antibody 201
B3: 217 hIgG2 (antibody, V domains shown)
VH: B1 VH with P21S, I57V, A61V, Y108S, A118S
VL: B1 VL with S30G, I34S, N65S
notes: Chimeric antibody: mouse Fv fused to the human IgG2 constant region
B4: 219 hIgG2 (antibody, V domains shown)
VH: B1 VH with P21S, I58R, M93I, A118S
VL: B1 VL with I29V, I34N, N65S, L104V
notes: Chimeric antibody: mouse Fv fused to the human IgG2 constant region; also called chimeric antibody 219

One experiment concerns the target T1, cyno CD39 on the cell surface …. The experiment can be described thus: cell-based or functional assay.
Regarding B1, the “Blocking of ATPase activity on cell surface (293T/17-cyno CD39, CellTiter Glo): Bottom” value was determined as 55600; the “Blocking of ATPase activity on cell surface (293T/17-cyno CD39, CellTiter Glo): EC50” value stood at 0.024 nM; the “Blocking of ATPase activity on cell surface (293T/17-cyno CD39, CellTiter Glo): Top” value was 275000.

B2: the “Blocking of ATPase activity on cell surface (293T/17-cyno CD39, CellTiter Glo): Bottom” value was 42300; the “Blocking of ATPase activity on cell surface (293T/17-cyno CD39, CellTiter Glo): EC50” value came to 0.014 nM; the “Blocking of ATPase activity on cell surface (293T/17-cyno CD39, CellTiter Glo): Top” value amounted to 232000.

For the molecule B3, the “Blocking of ATPase activity on cell surface (293T/17-cyno CD39, CellTiter Glo): Bottom” value came to 42200; the “Blocking of ATPase activity on cell surface (293T/17-cyno CD39, CellTiter Glo): EC50” value came out at 0.029 nM; the “Blocking of ATPase activity on cell surface (293T/17-cyno CD39, CellTiter Glo): Top” value was determined as 283000.

As to B4, the “Blocking of ATPase activity on cell surface (293T/17-cyno CD39, CellTiter Glo): Bottom” value was 44500; the “Blocking of ATPase activity on cell surface (293T/17-cyno CD39, CellTiter Glo): EC50” value worked out at 0.024 nM; the “Blocking of ATPase activity on cell surface (293T/17-cyno CD39, CellTiter Glo): Top” value turned out to be 303000.

A further experiment deals with T2, huCD39 on the cell surface …. In words: cell-based or functional assay.
B1: the “Blocking of ATPase activity on cell surface (293T/17-huCD39, CellTiter Glo): EC50” value (from here on “Blocking … (293T/17-huCD39, CellTiter Glo): EC50”) turned out to be 0.011 nM and the “Blocking of ATPase activity on cell surface (293T/17-huCD39, CellTiter Glo): Top” value (“Blocking … (293T/17-huCD39, CellTiter Glo): Top” for short) was found to be 1.03e+06.

As to B2, the “Blocking of ATPase activity on cell surface (293T/17-huCD39, CellTiter Glo): Bottom” value worked out at 119000; the “Blocking … (293T/17-huCD39, CellTiter Glo): EC50” value stood at 0.004 nM; the “Blocking … (293T/17-huCD39, CellTiter Glo): Top” value stood at 871000.

Turning to B3, the “Blocking of ATPase activity on cell surface (293T/17-huCD39, CellTiter Glo): Bottom” value was found to be 147000; the “Blocking … (293T/17-huCD39, CellTiter Glo): EC50” value came out at 0.008 nM; the “Blocking … (293T/17-huCD39, CellTiter Glo): Top” value was found to be 1.19e+06.

Turning to B4, the “Blocking of ATPase activity on cell surface (293T/17-huCD39, CellTiter Glo): Bottom” value is 172000; the “Blocking … (293T/17-huCD39, CellTiter Glo): EC50” value came to 0.01 nM; the “Blocking … (293T/17-huCD39, CellTiter Glo): Top” value stood at 800000.

In a further experiment the target is T1, cyno CD39 on the cell surface …. The experiment can be described thus: flow cytometry on 293T/17-cyno CD39 cells. As for the experimental part: (§1) Flow cytometry assay: recombinant host cell line 293T/17-huCD39 cells expressing huCD39 and recombinant host cell line 293T/17-cyno CD39 cells expressing cyno CD39 were used to evaluate the binding ability of the chimeric antibody to the natural CD39 protein on the cell surface. The recombinant cells were resuspended in PBS buffer, and 2×10⁶ cells were added to a 96-well U-plate. The chimeric antibody in a certain gradient dilution range incubated for 1h at 4° C. in a refrigerator or on ice, centrifuged at 1500 rpm for 3 min at 4° C., washed three times with PBS buffer, and then incubated for 30 min at 4° C. in the refrigerator or on ice with diluted Alexa Fluor 488-labeled goat anti-human polyclonal antibody (pAb): Goat anti-Human IgG (H+L) Cross-Adsorbed Secondary Antibody, Alexa Fluor 488 (thermo). Finally the cells were washed three times with PBS as described above and analyzed in MACSQuant flow cytometry. GraphPad Prism software was used to generate data plots and count affinity data (FIG. 2). The results are shown in Table 2, and the EC₅₀ values of each chimeric antibody of 293T/17-huCD39 and 293T/17-cyno CD39 was at the level of 10⁻⁹M.
(A flow cytometer gives signals particle by particle.)
The molecule B1 displayed a Bottom of 1.81, a half-maximal effective concentration (EC50) of 11 nM and a Top of 191.

B2 yielded a Bottom of 3.23, an EC50 of 8.69 nM and a Top of 209.

In the case of B3, the Bottom is 3, the EC50 came out at 9.49 nM and the Top is 160.

B4: the Bottom turned out to be 3.33; the midpoint of the response, the EC50, lay at 8.16 nM; the Top turned out to be 214.

Another experiment deals with T3, huCD39 recombinant protein. In words: indirect ELISA, huCD39 recombinant protein coated at 1 ug/mL. As for the experimental part: The Fv region of the four mouse-derived antibodies obtained in Example 1 was fused with the human IgG2 Fc region and constructed into the pcDNA3.1 vector. Then transfected 293F cells to express the antibody proteins, and the antibodies were purified by ProteinA affinity chromatography. […] The next day, the plates were washed 5 times with PBS buffer and blocked with 200 μL/well of 2% skimmed milk powder for 1 h. A certain dose range of chimeric CD39 antibody was incubated for 1 h at room temperature; then washed 5 times with PBST washing buffer (PBS, 0.05% Tween 20). 100 μL of HRP-labeled secondary antibody was added to each well and the plates were incubated for 30 min at room temperature. The plates were washed 5 times again and TMB (Life Technologies) was added for color development for 5 to 10 min. At last, 1N HCl was added to terminate the reaction, and the OD value was measured at 450 nm. GraphPad Prism software was used to generate data plots and the affinity data was counted (FIG. 1).
(ELISA stands for enzyme-linked immunosorbent assay.)
As for B1, the Bottom stood at 0.06 OD450, the EC50 turned out to be 2.43 nM and the Top came out at 1.43 OD450.

For the molecule B2, the Bottom came to 0.046 OD450, the 50% effective concentration (EC50) is 1.4 nM and the Top worked out at 1.64 OD450.

Turning to B3, the Bottom was determined as 0.07 OD450, the concentration for a half-maximal effect (EC50) was found to be 4.8 nM and the Top is 1.39 OD450.

As for B4, the Bottom was determined as 0.052 OD450, the 50% effective concentration (EC50) was determined as 1.69 nM and the Top was 1.33 OD450.

A further experiment addresses T2, huCD39 on the cell surface …. In words: flow cytometry on 293T/17-huCD39 cells. The method, then: as §1
For B1, the Bottom is 2.17, the EC50 was found to be 5.92 nM and the Top turned out to be 151.

With B2, the Bottom was -6.24, a half-maximal response (EC50) required 6.56 nM and the Top was 189.

Regarding B3, the Bottom is 5.8, the EC50 stood at 3.8 nM and the Top amounted to 116.

For B4, the Bottom amounted to 3.81, a half-maximal response (EC50) required 4.51 nM and the Top amounted to 156.

By EC50 is commonly meant the concentration needed to bring the measured effect to its halfway point.
